Our source for the screen value values is publication PMC7954794, “Protein context shapes the specificity of SH3 domain-mediated interactions in vivo” (Nature Communications, 2021).

First the molecules themselves.
B1: S. cerevisiae Abp1 (full length; SH3 domain 535-592 mutated) / Hua2 (parent)
chain 1: MALEPIDYTTHSREIDAEYLKIVRGSDPDTTWLIISPNAKKEYEPESTGSSFHDFLQLFDETKVQYGLARVSPPGSDVEKIIIIGWCPDSAPLKTRASFAANFAAVANNLFKGYHVQVTARDEDDLDENELLMKISNAAGARYSIQTSSKQQGKASTPPVKKSFTPSKSPAPVSKKEPVKTPSPAPAAKISSRVNDNNDDDDWNEPELKERDFDQAPLKPNQSSYKPIGKIDLQKVIAEEKAKEDPRLVQKPTAAGSKIDPSSDIANLKNESKLKRDSEFNSFLGTTKPPSMTESSLKNDDDKVIKGFRNEKSPAQLWAERKAKQNSGNAETKAEAPKPEVPEDEPEGEPDVKDLKSKFEGLAASEKEEEEMENKFAPPPKKSEPTIISPKPFSKPQEPVKAEEAEQPKTDYKKIGNPLPGMHIEADNEEEPEENDDDWDDDEDEAAQPPLPSRNVASGAPVQKEEPEQEEIAPSLPSRNSIPAPKQEEAPEQAPEEEIEEEAEEAAPQLPSRSSAAPPPPPRRATPEKKPKENPWATAEYDYDAAEDNELTFVENDKIINIEFVDDDWWLGELEKDGSKGLFPSNYVSLGN
chain 2: MQQTKFGKMYLDHDSVVEYSEDEIVEADRITLGYKKRLSMIENQMRHLLEDFSLDVQQIEPILADLQKYYDAFLQLLQKRNKSLQCKRSTHQPVPSPMNSQTSTNAKVNLSGKLMKFQLNSVQKFDEENILRILQNKIEFEHYFQIDKGKKQKVLLLAVYQCLNGPTRLHKVLNIEGIIHNNSIRTILGKQVSSSKWTVFLYDVKLVLLAHRQDVPNLETSKMIVRYGDLFPCALYFKDHTAY

One test covers variants of B1. Kind of test: DHFR protein-fragment complementation in yeast (Abp1-DHFR F[1,2] x partner-DHFR F[3]), deep mutational scanning, second methotrexate selection vs reference. Particulars: with Hua2; S. cerevisiae, DHFR-PCA selection in liquid with methotrexate at 30 C, two 72 h selections (the score uses the second); reference = the pre-selection culture; not an affinity; scale: DMS score: mean over two replicates of log2(f_test/f_ref + 0.5)/ln 2, minus the synonymous-codon median.
In the case of chain 1 E550G, the screen value was -2.84.
For the variant chain 1 E550K, the screen value was -2.04.
On to chain 1 E550A, for which the screen value is -2.77.
With chain 1 D577H, the screen value is -2.21.
On to chain 1 D577V, for which the screen value is -2.26.
Take chain 1 D577A: the screen value was -1.59.
As to chain 1 D577E, the screen value was -1.09.
As for chain 1 D577L, the screen value was -2.96.
The same measure, in the same setting: then chain 1 D577N, with -2.24; and chain 1 D577Q, with -2.41; and chain 1 D577Y, with -2.59.
Regarding chain 1 D577W, the screen value was -2.9.
Turning to chain 1 D577G, the screen value was -1.18.
Take chain 1 D577R: the screen value was -2.77.
Consider chain 1 D577M, for which the screen value is -2.7.
Take chain 1 D577K: the screen value is -2.12.
Take chain 1 W536P: the screen value is -2.87.
chain 1 W536N: the screen value is -1.23.
Regarding chain 1 W536D, the screen value is -1.97.
Turning to chain 1 W536K, the screen value was -1.76.
As for chain 1 W536R, the screen value is -1.3.
Consider chain 1 W536I, for which the screen value was -1.58.
On the same count and under the same terms, for chain 1 W536L the value was -1.66; for chain 1 W536A, -1.3.
With chain 1 W536G, the screen value is -2.23.
The same measure, in the same setting: then chain 1 S589Y, with -1.12.
Turning to chain 1 S589P, the screen value was -2.38.
For chain 1 I560G, the screen value is -2.38.
In the case of chain 1 I560W, the screen value was -2.4.
Turning to chain 1 I560D, the screen value is -2.15.
As to chain 1 I560A, the screen value is -1.35.
As to chain 1 T538D, the screen value is -2.65.
Still for that read-out and setting: for chain 1 T538P the value was -1.88.
For chain 1 T538G, the screen value was -2.9.
In the case of chain 1 T538W, the screen value is -1.19.
On the same count and under the same terms, then chain 1 A539S, with -1.72; and chain 1 A539T, with -1.45; and chain 1 A539P, with -2.72.
Still for that read-out and setting: for chain 1 A539E the value was -2.3.
Consider chain 1 A539G, for which the screen value was -2.8.
Consider chain 1 K576D, for which the screen value is -1.75.
Still for that read-out and setting: then chain 1 K576V, with -1.06; and chain 1 K576I, with -1.18.
chain 1 K576P: the screen value was -2.88.
The same measure, in the same setting: then chain 1 K576Y, with -1.6.
Turning to chain 1 K576F, the screen value was -2.16.
Take chain 1 K576M: the screen value is -1.51.
On the same count and under the same terms, for chain 1 K576W the value was -2.17.
On the same count and under the same terms, then chain 1 K576L, with -1.83.
On the same count and under the same terms, then chain 1 S585E, with -2.07.
In the case of chain 1 S585I, the screen value was -1.59.
As to chain 1 G578Y, the screen value was -2.41.
As for chain 1 G578C, the screen value was -1.66.
Turning to chain 1 G578E, the screen value was -1.21.
For the variant chain 1 G578T, the screen value is -2.3.
The same measure, in the same setting: for chain 1 G578L the value was -2.28; for chain 1 G578F, -2.12; for chain 1 G578D, -1.53.
As for chain 1 G578V, the screen value is -2.83.
On the same count and under the same terms, for chain 1 D548Y the value was -1.22; for chain 1 G572E, -2.36.
In the case of chain 1 G572W, the screen value is -2.24.
Still for that read-out and setting: then chain 1 G572R, with -2.78; and chain 1 G572V, with -2.77; and chain 1 E547M, with -1.68.
As for chain 1 E547I, the screen value is -2.45.
chain 1 E547F: the screen value was -1.69.
Consider chain 1 E547A, for which the screen value is -2.3.
chain 1 E547G: the screen value was -2.81.
In the case of chain 1 E547V, the screen value was -2.1.
For chain 1 E547C, the screen value is -2.2.
chain 1 E547W: the screen value is -2.89.
In the case of chain 1 W570F, the screen value is -2.79.
For chain 1 W570R, the screen value was -2.58.
On the same count and under the same terms, then chain 1 W570S, with -2.8; and chain 1 W570C, with -1.57.
In the case of chain 1 W570L, the screen value was -2.25.
The same measure, in the same setting: then chain 1 W570G, with -2.48.
On to chain 1 W570Y, for which the screen value is -2.31.
Consider chain 1 W570N, for which the screen value is -2.68.
On to chain 1 E540F, for which the screen value was -2.97.
For the variant chain 1 Y587Q, the screen value was -2.81.
For the variant chain 1 Y587D, the screen value was -2.16.
Same read-out and setting: then chain 1 Y587W, with -1.66; and chain 1 Y587N, with -1.43; and chain 1 D557K, with -2.91.
Still for that read-out and setting: then chain 1 D557S, with -2.41; and chain 1 D557C, with -2.97; and chain 1 D557Y, with -2.77.
Still for that read-out and setting: then chain 1 D557A, with -2.31; and chain 1 D557G, with -2.9; and chain 1 D557M, with -2.77.
With chain 1 D557N, the screen value is -1.63.
With chain 1 D557V, the screen value was -2.87.
With chain 1 F583I, the screen value is -1.72.
chain 1 F583L: the screen value was -1.78.
chain 1 F583V: the screen value is -2.31.
For the variant chain 1 F583S, the screen value was -2.62.
Still for that read-out and setting: for chain 1 F583Y the value was -1.68; for chain 1 F583C, -2.31.
Consider chain 1 N556I, for which the screen value was -2.52.
On the same count and under the same terms, then chain 1 N556P, with -2.97; and chain 1 N556V, with -2.96.
For the variant chain 1 N556W, the screen value was -1.22.
Regarding chain 1 W569V, the screen value was -2.92.
Still for that read-out and setting: then chain 1 W569E, with -2.94; and chain 1 W569R, with -2.35.
In the case of chain 1 W569L, the screen value was -2.34.
As for chain 1 W569G, the screen value was -2.06.
On to chain 1 W569C, for which the screen value is -1.49.
As for chain 1 L582Q, the screen value is -2.88.
On the same count and under the same terms, then chain 1 L582N, with -2.32; and chain 1 L582P, with -2.04.
On to chain 1 L582C, for which the screen value was -2.82.
The same measure, in the same setting: then chain 1 L582S, with -2.57; and chain 1 L582V, with -2; and chain 1 L582H, with -1.2.
With chain 1 A537P, the screen value is -2.58.
With chain 1 A537D, the screen value was -2.14.
Consider chain 1 A537V, for which the screen value is -2.01.
In the case of chain 1 A537F, the screen value was -2.93.
With chain 1 A537T, the screen value was -1.87.
On to chain 1 A537S, for which the screen value is -2.6.
For the variant chain 1 N586Y, the screen value is -2.41.
Still for that read-out and setting: for chain 1 N586W the value was -2.53.
Regarding chain 1 N586F, the screen value is -2.5.
For the variant chain 1 Y541T, the screen value was -2.3.
Take chain 1 Y541G: the screen value is -1.86.
Regarding chain 1 Y541I, the screen value was -2.42.
The same measure, in the same setting: then chain 1 L574Q, with -1.79; and chain 1 L574H, with -1.08.
As to chain 1 L574A, the screen value was -1.53.
In the case of chain 1 L574S, the screen value is -1.23.
With chain 1 L574P, the screen value was -2.01.
For the variant chain 1 L574G, the screen value was -2.91.

The same test, now with this note: with Hua2; S. cerevisiae, DHFR-PCA selection in liquid with methotrexate at 30 C, two 72 h selections (the score uses the second); reference = the pre-selection culture; not an affinity; value at the no-binding floor (a bound); scale: DMS score: mean over two replicates of log2(f_test/f_ref + 0.5)/ln 2, minus the synonymous-codon median.
On to chain 1 E550N, for which the screen value is less than -3.06.
Regarding chain 1 D577F, the screen value is -2.98.
chain 1 D577I: the screen value is -2.99.
Regarding chain 1 D577P, the screen value was less than -3.06.
Turning to chain 1 A539M, the screen value was less than -3.06.
Regarding chain 1 A539R, the screen value was -3.02.
Take chain 1 A539D: the screen value was -3.
For chain 1 A539K, the screen value was less than -3.06.
For chain 1 A539F, the screen value was less than -3.06.
For chain 1 A539N, the screen value is less than -3.06.
chain 1 A539Q: the screen value is -3.03.
Regarding chain 1 A539W, the screen value is -3.01.
chain 1 A539Y: the screen value was less than -3.06.
Take chain 1 A539L: the screen value was less than -3.06.
As for chain 1 A539I, the screen value was -3.01.
On to chain 1 E547P, for which the screen value is less than -3.06.
In the case of chain 1 E540P, the screen value was -3.
Regarding chain 1 D557W, the screen value was less than -3.06.
As to chain 1 D557I, the screen value was less than -3.06.
Turning to chain 1 D557F, the screen value was less than -3.06.
Regarding chain 1 D557L, the screen value was less than -3.06.
Take chain 1 D557R: the screen value is less than -3.06.
In the case of chain 1 A537M, the screen value was less than -3.06.
Still for that read-out and setting: then chain 1 A537W, with less than -3.06; and chain 1 A537N, with less than -3.06; and chain 1 A537Q, with less than -3.06.
The same measure, in the same setting: for chain 1 A537R the value was -3.04; for chain 1 A537I, -3.01.
Turning to chain 1 A537L, the screen value is -3.02.
As to chain 1 A537Y, the screen value was less than -3.06.
Take chain 1 A537H: the screen value was less than -3.06.
Consider chain 1 A537E, for which the screen value is -3.04.
